Assay: yeast display, Sf9 membrane polyspecificity reagent, FACS + sequencing; frameworks hold sequencing errors
How it was run: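 Galactose induction of a Saccharomyces cerevisiae BJ5465 synthetic nanobody display library ran 36–48 hours. The cells were then stained for 1 hour at 4 °C with 10% biotinylated, detergent-solubilized Sf9 membrane reagent, pulled down on streptavidin microbeads and FACS-sorted into low and high (top ~1%) gates on expression and reagent-binding fluorescence. Labels for polyreactivity follow the gate of origin.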

## QVQHVESGGGLVQAGGSLRLSCAAYGSIFVYYAMGWYRKAPGKERDLFAAISSSGDTTYYADSVKGRYTISRDNAKNTVYLQMNSLKPEDTAVYYCAARVRVYRHASNYYWGQCTQVTVSS
  polyreactivity (PSR sort gate): high polyreactivity

## QVQLVESGGGLVQAGGSIRLSCAASGRTFKKYAMGWYRQAPGKERELVAAITGSGGSTYYADSVKGRFTISRDNAKNTVYLQINSLKPEDTAVYYCAAYAYGVGHSQDGGNYWGQGNQVTVSS
  polyreactivity (PSR sort gate): low polyreactivity

## QVQLVESGGGLVQAGGSLRLSCAASGSIFWGYDMGWYRQAPGKERELVASISYSGGSTSYADSVKGRFTISRDNAKNTVYLQMNSLKPEDTAVYYCAADEGGFWWTYPYDSWGQGTQVTVSS
  polyreactivity (PSR sort gate): low polyreactivity

## QVQLVESGGGLVQAGGSLRLSCAASRRIFGQNVMGWYRQAPGKERELVAAITSAGRTYYADSVKGRFTISRDNAKNTVYLQMNSLKPEDTAVYYCAAYVRRGFDWGHGTQVTVSS
  polyreactivity (PSR sort gate): high polyreactivity

## QVQLVESGGGLVQAGGSLRLICAASGRIFYAYAMGWYRQAPGKERELVATITYGGGSTYYADSVKGRFTISRDNAKNTVYLQMNSLKPEDTAVYYCAAVRTGSTLYTIRYYYWGQGTQVTVSS
  polyreactivity (PSR sort gate): low polyreactivity

## QVQLVESGGGLVQAGGSLGLSCAASGRTFGYYAMGWYRQAPGTERALVAAIRSTGSTNYADSVKGRFTISRDNAKNTVYLQMNSLIPEDTAVYYCYAKRRFRYDYWGQGTQVTVSS
  polyreactivity (PSR sort gate): low polyreactivity

## QVQLVESGGGLVQAGGSLRLSCAASGSIFRRYTMGWYRPAPGKERELVAAISRVGNTNYADSVKGRFTISRDNAKNTVYLPMNSLKPEDTAVYYCAARAIGYRYTPGLNYWGQGTQLTVSS
  polyreactivity (PSR sort gate): high polyreactivity

## QVQLVESGGGLVQAGGSLRLSCAASGSIFHRNAMGWYRQAPGKEREFVAAISWRGGSTYYADSVKGRFTISRDNAKNTVYLQMNSLKPEDTAVYYCAADPVGYYWSRRSEFYYWGQGTQVTVSS
  polyreactivity (PSR sort gate): high polyreactivity

## QVQLVESGGGLVQAGGSLRLSCPASGRIYDYNGMRWYRQAPRKERELVAAITSSGSRTYYADSVKGRFTISRDNAKNTVYFQMNSLKPEDTAVYYCARGGGRRKGLVDYWGQGTQVSVSS
  polyreactivity (PSR sort gate): low polyreactivity

## QVQLVESGGGLVQAGGSLRLSCAASGLNFSYYVMGWYRQAPGKERELVATITYSGGSTYYADSVKGRFTISRDNAKNTVYLQMNSLKPEDTAVYYFNADTGYVYSEYEYWGQGTQVTVSS
  polyreactivity (PSR sort gate): high polyreactivity

## QVQLVESGGGLVQAGGSLRLSCAASGSIFKTYAMGWYRQAPGKERELVAAISWRGGSTYYADSVKGRFTISRDNAKNTVYLEMNSLKPEDTAVYYCAAGRKFGTRTLWYRYGYWGQGTQVTVSS
  polyreactivity (PSR sort gate): high polyreactivity

## QVQLVESGGGLVQAGGSLRLSCAASGFTFEYYAMGWYRQARGKERELVASITNSGTRTYYADSVKGRFTISRDNAKNTVYLQMNSLKPEDTAVYYCAATPWNGRYSRFGYWGQGTQVTVSS
  polyreactivity (PSR sort gate): high polyreactivity

## QVQLVESGVGLVQAGGSLRLSCAASGSTFGGYAMVWYRQAPGKESELVAAIYSSGGNTNYADSVKGRFTISRDNAKNTVYLQMNSLIPEDTAVYYCARDTQLPHFYGRVSEYDYWGQGTQVTVSS
  polyreactivity (PSR sort gate): low polyreactivity

## QVQLVESGGGLVQAGGSLRLSCAASGYIFSGYAMGWYRQAPGKERELVAAISSSGGRTYYADSVKGRFTISRDNAKNTVYLQMNSLKPEDTAVYYCAADAVYYHFDYWGQGTQVTVSS
  polyreactivity (PSR sort gate): high polyreactivity

## QVQLVESGGGLVQAGGSLRLSCAASGRIFGVNAMGWYRQAPGKERELVAAIRYSGGSTYYADSVKGRFTISRDNAKNTVYLQMNSLKPEDTAVYYCAKARYTYSWSFGYWGQGTQVTVSS
  polyreactivity (PSR sort gate): low polyreactivity

## QVQLVESGGGLVQAGGSLRLSCAASGRTFIVYAMGWYRQAPGKERELVARISSGSRTSYADSVKGRFTISRDNAKNTVYLQMNSLKPEDTAVYYCAKSRVIKYEFDYWGQGTQVTVSS
  polyreactivity (PSR sort gate): low polyreactivity

## QVQLEESGGGLVQAGGSLRISCAASVRTFKYYAMGWNRQAPGKETELVAAISWSGSSTSYADSVKGRFTISRDHAKNTVYLQMNSLKPEDTAVYYCAAATYRQFTGTYDYWGQGTQVTVSS
  polyreactivity (PSR sort gate): high polyreactivity

## QVQLVESGGGLVQAGGSLRLSCAASGSNFVYNAMGWYRQAPGKERELVAVINKSGDTTYYADSVKGRFTISRDNAKNTVYLQMNSLKPEDTAVYYCNASGEVLAAVVTYDYWGQGTQVTVSS
  polyreactivity (PSR sort gate): low polyreactivity

## QVQLVESGGGLVQAGGSLRLSCAASGSTFRYYAMGWYRQAPGKERELVASITWSGGSTYYADSVKGRFTISRDNAKNTVYLQMNSLKPEDTAVYYCAARQYIGSPPHRRRFDYWGQGTQVTVSS
  polyreactivity (PSR sort gate): high polyreactivity

## QVQLVESGGGIVQAGGSLRLICAASGFTFSYYAMAWYRQAPGKEREFVAAITRSGSTYYADSVKGRFTISRENAKNTVYLQMISLKPEDTSVYYCAARFLYRYDYWGQGTQVTVSS
  polyreactivity (PSR sort gate): high polyreactivity

## QVQLVESGGGLVQAGGSLRLSCAASGITSGNNAMGWYRQAPGKERELVAAISWTGGSTYYADSVKGRFTISRDNAKNTVYLEMNSLKPEDTAVYYCAAGGWDPFTEQHYEYWGQGTQVTVSS
  polyreactivity (PSR sort gate): low polyreactivity

## QVQLVESGGGLVQAGGSLRLICAASGSTFHAYAMGWYRQAPGKERDLVAAITWSGDSTYADSVKGRFTISRDKAKNTFFLQMNSLKPEETAVYDCACRGFLGHWPRPSYDYWGQGTQVTVSS
  polyreactivity (PSR sort gate): low polyreactivity

## QVQLVESGGGLVQAGGSLRLSCAASGSILSSYAMGWYRQAPGKERELVAAISYTGDSTYYADSVKGRFTISRDNAKNTVYLQMNSLKPEDTAVYYCAAELLPPYYYRWLEYWGQGTQVTVSS
  polyreactivity (PSR sort gate): low polyreactivity

## QVQLVESGVGLVQARGSLRISCAASGFIFDLYAMGWYIQAHGKERELVAAITTSGGTTYYADSVKGRFTISRDNAKNTVYLQMNSLKPEDTAVYYCNALRRYVSVRPTKSDYWGQGTQVTVSS
  polyreactivity (PSR sort gate): high polyreactivity

## QVQLVESGGGLVQAGGSLRLICAASGRTFYKYAMGWYRQAPGKEREFVADISSRGGSTYYADSVKGRFTISRDNAKNTVYLQMNSLKPEDTSVYYCAAFSDLTFWHHFSELYYWGQGTQVTVSS
  polyreactivity (PSR sort gate): high polyreactivity

## QVQLVESGGGLVQAGGSLRLSCAASGRTFSGYAMGWYRQAPGKERELVAAIRGGSTNYADSVKGRFTISRDNAKNTVYLQMNSLKPEDTAVYYCNAKRSWVWAGYDYWGQGTQVTVSS
  polyreactivity (PSR sort gate): high polyreactivity

## QVQLVESGGGLVQAGGSLRLSCAASGIIFSFYAMGWYRQAPGKERELVAAISRSGGSTYYADSVKGRFTISRDNAKNTVYLQMNSLKPEDTAVYYCNADNGASYYYRRYDSWGQGTQVTVSS
  polyreactivity (PSR sort gate): high polyreactivity

## QVQLVESGGGLVQAGGSLRLSCAASGRTIASYTMGWYRPAPGKERDLVAAISKSGGSTYYADSVKGRFTISRDNSKNTVYLQMNSLKPEDTAVYYCNAVGARVASATGMEYWGQGTQVTVSS
  polyreactivity (PSR sort gate): high polyreactivity

## QVQLVESGGGLVQAGGSLRLSCAASGRTFGRNAMGWYRQAPGERELVAVISRGGSTYYADSVKGRFTISRDNAKNTVYLQMNSLKPEDTAVYYCNADTVYTRTAPYDYWGQGTQVTVSS
  polyreactivity (PSR sort gate): low polyreactivity

## QVQLVESGGGLVQAGGSLRLTCAASGSIVQVYPMVWYRQEPGKEREFVAAISYSGGGTYYADSVKGRFTISRDIAKNTVYLQMNILKPEDTAVYYCAADVSAWEEDIWRQGTQVTVSS
  polyreactivity (PSR sort gate): low polyreactivity

## QVQLVESGGGLVQAGGSLRLSCAASGYTFESYTMGWYRQAPGKEREFVAVISSSDTSTSYADSVKGRFTISRDNAKNTVYLQMNSLKPEDTAVYYCAAYSSPYYITYYWYNYDYWGQGTQVTVSS
  polyreactivity (PSR sort gate): low polyreactivity

## QVQLVESGGGLVQAGGSLRLSCAASGLTFVTYVMGWYRQAPGKERELVAAISYSGGSTYYADSVKGRFTISRDNAKNTVYLQMISLKPEDTAVYYCAAEWYGYQEDDYWGQGTQVTVSS
  polyreactivity (PSR sort gate): low polyreactivity

## QVQLVESGGGLVQAGGSLRLSCAASGFIVWVYAMGWYRQAPGKERELVAAITSGGGSTYYADSVKGRFTISRDNAKNTVYLQMNSLKPEHTAVYYCNAVSWEGYDFDYWGQGTQVTVSS
  polyreactivity (PSR sort gate): high polyreactivity

## QVQLVESGGCLVQAGGSLRLSCAASGRIFESNAMGWYRQAPGKERELVAAISVNGASTSYADSVKGRFTISRDNAKNTVYLQMNSLKPEDTAVYYCAARRGKGYYYWGQGTQVTVSS
  polyreactivity (PSR sort gate): high polyreactivity

## QVQLVESGGGLVQAGGSLRLSCAASGNIFFSNAMGWYRQAPGKERELLASISQSGGSTYYADSVKGRFTISRDNAKNTVYLQMNSLKPEDTAVYYCAATQVRRGPAWGRDYWGQGTQVTVSS
  polyreactivity (PSR sort gate): low polyreactivity

## QVQLVESGGGLVQAGGSLRLSCAASGLTFQNNAMGWYRQAPGKERELVAVITRIGGSTYYADSVKGRFTISRDNAKNTVYLQMNSLKPEDTAVYYCAAGYRTRRRLHDYWGQGTQVTVSS
  polyreactivity (PSR sort gate): high polyreactivity

## QVQLVDSGGGLVQGGGSLRLSCAASGRTFGIYPMRWYRPAPGKERELVAAISRRGTSTYYADTVKGRFTISRDNAKNTVYLQLNSLKPEDTAVYYCATVGATVDNRDDYWGQGTQVTVSS
  polyreactivity (PSR sort gate): high polyreactivity

## QVQLVESGGGLVQAGGSLRLSCAASGSTFRWYTMGWYRQAPGKERELVAAINQSGSRTYYADSVKGRFTISRDNAKNTVYLQMNSLKPEDTAGYYCNAKSYKSPHTYYYWGQGTQVTVSS
  polyreactivity (PSR sort gate): high polyreactivity

## QVQLVESGGGLVQAGGSLRLSCAASGITFGIYAMGWYRQAPGKERELVAAIDGSDGSTYYADSVKGRFTISRDNAKNTVYLQMKSLKPEDTAVYYCNAENGYSWDVFSDYWGQGTQVTVSS
  polyreactivity (PSR sort gate): low polyreactivity

## QVQLVESGGGLVQAGGSLRLSCAASGRTFIAYAMGWYRPAPGKERALVAAITSSGGSTYYADSVKGRFTISRDNAKNTVYLQMNSLKPEDTAVFYCATDIYESPYFYYSYYYWGQGTQVTVSS
  polyreactivity (PSR sort gate): low polyreactivity

## QVQLVESGGGLVQAGGSLRLSCAASGSIFVPYAMGWYRQAPGKERELVAAISYSGGTTYADSVKGRFTISRDNAKNTVYLQMNRVKPEDTAVYYCAARYWRRWRQSVSLDYWGQGSQVTVSS
  polyreactivity (PSR sort gate): high polyreactivity

## QVQLVESGGGLVQAGGSLRLSCAASGRIFDPNVMVRYRTAPGKERELVAAIRTSGGRTYYADSVKGRFTISRDNAKNTVYLQMNSLKPEDTAVYYCAALYKGKYDYWGQGTQVNVSS
  polyreactivity (PSR sort gate): high polyreactivity

## QVQLVESGGGLVQAGGSIRLSCAASGIIFLGNAMGWYRQAPGIERELVAAITASGTTSYYADSVKGRFTISRDNAKNTVSLQMNSLKPEDTAVDYCAAQSTWYDFYYWVQGTQVTVSS
  polyreactivity (PSR sort gate): low polyreactivity

— the nanobody polyreactivity screen of Harvey et al. (2022)
